Patent publication US20200164059A1
Substitutions are numbered along the chain they refer to. In names and notes the source's numbering stands.

Columns and labels:
[1] = molecular target: EBV gH/gL heterodimer, recombinant ectodomain (Epstein Barr virus); assay: BLI kinetics, pH 7.4, ligand AMMO1Q1NHC Mab, analyte gH/gL; KA M^-1 x10^7
[2] = molecular target: EBV gH/gL heterodimer, recombinant ectodomain (Epstein Barr virus); assay: BLI kinetics, pH 7.4, ligand AMMO1Q1NHC Mab, analyte gH/gL; koff (1/s) x10^-3
[3] = molecular target: EBV gH/gL heterodimer, recombinant ectodomain (Epstein Barr virus); assay: BLI kinetics, pH 7.4, ligand AMMO1Q1NHC Mab, analyte gH/gL; KD M x10^-9
[4] = molecular target: EBV gH/gL heterodimer, recombinant ectodomain (Epstein Barr virus); assay: BLI kinetics, pH 7.4, ligand AMMO1Q1NHC Mab, analyte gH/gL; kon (1/Ms) x10^5
[5] = molecular target: T1, EBV gH/gL heterodimer, recombinant ectodomain (Epstein Barr virus); assay: BLI kinetics, pH 7.4, ligand gH/gL, analyte AMMO1 Fab; KD M x10^-9
[6] = molecular target: T1, EBV gH/gL heterodimer, recombinant …; assay: BLI kinetics, pH 7.4, ligand gH/gL, analyte AMMO1 Fab; KA M^-1 x10^7

B1: AMMO1 containing a Q1N heavy chain mutation (antibody, V domains shown)
VH: NVQLVQSGADVKKPGASVKVSCKASGYTFIHFGISWVRQAPGQGLEWMGWIDTNNGNTNYAQSLQGRVTMTTDTSTGTAYMELRSLSTDDTAVYFCARALEMGHRSGFPFDYWGQGVLVTVSP
VL: SYELTQPPSVSVAPGQRATITCGGHNIGAKNVHWYQQKPGQAPVLVIQYDSDRPSGIPERFSGSNSGSTATLTISRVEAGDEADYYCQVWDSGRGHPLYVFGGGTKVTVL
Ka [1]: 6.34e+09 M⁻¹ | koff [2]: 3.85e-05 s⁻¹ | Kd [3]: 160 pM | kon [4]: 244000 M⁻¹ s⁻¹

B2: AMMO1 Fab (Fab, V domains shown)
VH: B1 VH with N1Q
VL: B1 VL
modifications: not checked
Kd [5]: 120 pM | Ka [6]: 8.12e+09 M⁻¹
